PMC5363870, “A functional variant in NEPH3 gene confers high risk of renal failure in primary hematuric glomerulopathies. Evidence for predisposition to microalbuminuria in the general population” (PLoS ONE, 2017)

B1: Neph3 (filtrin) 353M variant (natural protein, human, UniProt Q6UWL6 21-708, looked up)
chain: GPSPHFLQQPEDLVVLLGEEARLPCALGAYWGLVQWTKSGLALGGQRDLPGWSRYWISGNAANGQHDLHIRPVELEDEASYECQATQAGLRSRPAQLHVLVPPEAPQVLGGPSVSLVAGVPANLTCRSRGDARPTPELLWFRDGVLLDGATFHQTLLKEGTPGSVESTLTLTPFSHDDGATFVCRARSQALPTGRDTAITLSLQYPPEVTLSASPHTVQEGEKVIFLCQATAQPPVTGYRWAKGGSPVLGARGPRLEVVADASFLTEPVSCEVSNAVGSANRSTALDVLFGPILQAKPEPVSVDVGEDASFSCAWRGNPLPRVTWTRRGGAQMLGSGATLRLPSVGPEDAGDYVCRAEAGLSGLRGGAAEARLTVNAPPVVTALHSAPAFLRGPARLQCLVFASPAPDAVVWSWDEGFLEAGSQGRFLVETFPAPESRGGLGPGLISVLHISGTQESDFSRSFNCSARNRLGEGGAQASLGRRDLLPTVRIVAGVAAATTTLLMVITGVALCCWRHSKASASFSEQKNLMRIPGSSDGSSSRGPEEEETGSREDRGPIVHTDHSDLVLEEEGTLETKDPTNGYYKVRGVSVSLSLGEAPGGGLFLPPPSPLGPPGTPTFYDFNPHLGMVPPCRLYRARAGYLTTPHPRAFTSYIKPTSFGPPDLAPGTPPFPYAAFPTPSHPRLQTHV
notes: Neph3 (filtrin), human NEPH3 cDNA with the natural variant V353M (GTG to ATG by site-directed mutagenesis); Each copy carries ONE tag: FLAG on the bait copy, HA on the prey copy of the homodimerisation co-IP; Two FLAG constructs are described (Origene pCMV6 with FLAG-tag; modified pcDNA6 with CD5 signal peptide fused to the FLAG-tag); also called NEPH3-V353M; NEPH3-p.V353M; source: HEK 293T, …
B2: Neph3 (filtrin) 353V (natural protein, human, UniProt Q6UWL6 21-708, looked up)
chain: GPSPHFLQQPEDLVVLLGEEARLPCALGAYWGLVQWTKSGLALGGQRDLPGWSRYWISGNAANGQHDLHIRPVELEDEASYECQATQAGLRSRPAQLHVLVPPEAPQVLGGPSVSLVAGVPANLTCRSRGDARPTPELLWFRDGVLLDGATFHQTLLKEGTPGSVESTLTLTPFSHDDGATFVCRARSQALPTGRDTAITLSLQYPPEVTLSASPHTVQEGEKVIFLCQATAQPPVTGYRWAKGGSPVLGARGPRLEVVADASFLTEPVSCEVSNAVGSANRSTALDVLFGPILQAKPEPVSVDVGEDASFSCAWRGNPLPRVTWTRRGGAQVLGSGATLRLPSVGPEDAGDYVCRAEAGLSGLRGGAAEARLTVNAPPVVTALHSAPAFLRGPARLQCLVFASPAPDAVVWSWDEGFLEAGSQGRFLVETFPAPESRGGLGPGLISVLHISGTQESDFSRSFNCSARNRLGEGGAQASLGRRDLLPTVRIVAGVAAATTTLLMVITGVALCCWRHSKASASFSEQKNLMRIPGSSDGSSSRGPEEEETGSREDRGPIVHTDHSDLVLEEEGTLETKDPTNGYYKVRGVSVSLSLGEAPGGGLFLPPPSPLGPPGTPTFYDFNPHLGMVPPCRLYRARAGYLTTPHPRAFTSYIKPTSFGPPDLAPGTPPFPYAAFPTPSHPRLQTHV
notes: Neph3 (filtrin), human NEPH3 cDNA, wild-type allele with valine at position 353; Each copy carries ONE tag: FLAG on the bait copy, HA on the prey copy of the homodimerisation co-IP; Two FLAG constructs are described (Origene pCMV6 with FLAG-tag; modified pcDNA6 coding for the CD5 signal peptide fused to the FLAG-tag); In the pcDNA6 constructs a CD5 signal peptide precedes the tag; also called …

Experiments:
Assay in all cases: co-IP; HEK 293T cells co-transfected, lysed in IP-buffer (1% Triton X-100, 20 mM Tris pH 7.5, 25 mM NaCl); FLAG-Neph3 precipitated with anti-FLAG, blot with anti-HA (HA-Neph3) or anti-V5 (sV5-nephrin); densitometry (ImageJ) normalised to input, wild type set at 1.0, n = 3
Neph3 (filtrin) 353V = target: B2; conditions: partners not purified
[1] = target: the molecule itself
[2] = target: B1; conditions: partners not purified

Binder: B1
- mean normalized densitometry value (co-IP) (Neph3 (filtrin) 353V): 4.33 relative to wild type (1.0)
- mean normalized densitometry value (co-IP) [1]: 23.8 relative to wild type (1.0)

Binder: B2
- mean normalized densitometry value (co-IP) [1]: 1 relative to wild type (1.0)

B3: Nephrin (Nphs1) (natural protein, human, UniProt O60500 23-1241, looked up)
chain: QLAIPASVPRGFWALPENLTVVEGASVELRCGVSTPGSAVQWAKDGLLLGPDPRIPGFPRYRLEGDPARGEFHLHIEACDLSDDAEYECQVGRSEMGPELVSPRVILSILVPPKLLLLTPEAGTMVTWVAGQEYVVNCVSGDAKPAPDITILLSGQTISDISANVNEGSQQKLFTVEATARVTPRSSDNRQLLVCEASSPALEAPIKASFTVNVLFPPGPPVIEWPGLDEGHVRAGQSLELPCVARGGNPLATLQWLKNGQPVSTAWGTEHTQAVARSVLVMTVRPEDHGAQLSCEAHNSVSAGTQEHGITLQVTFPPSAIIILGSASQTENKNVTLSCVSKSSRPRVLLRWWLGWRQLLPMEETVMDGLHGGHISMSNLTFLARREDNGLTLTCEAFSEAFTKETFKKSLILNVKYPAQKLWIEGPPEGQKLRAGTRVRLVCLAIGGNPEPSLMWYKDSRTVTESRLPQESRRVHLGSVEKSGSTFSRELVLVTGPSDNQAKFTCKAGQLSASTQLAVQFPPTNVTILANASALRPGDALNLTCVSVSSNPPVNLSWDKEGERLEGVAAPPRRAPFKGSAAARSVLLQVSSRDHGQRVTCRAHSAELRETVSSFYRLNVLYRPEFLGEQVLVVTAVEQGEALLPVSVSANPAPEAFNWTFRGYRLSPAGGPRHRILSSGALHLWNVTRADDGLYQLHCQNSEGTAEARLRLDVHYAPTIRALQDPTEVNVGGSVDIVCTVDANPILPGMFNWERLGEDEEDQSLDDMEKISRGPTGRLRIHHAKLAQAGAYQCIVDNGVAPPARRLLRLVVRFAPQVEHPTPLTKVAAAGDSTSSATLHCRARGVPNIVFTWTKNGVPLDLQDPRYTEHTYHQGGVHSSLLTIANVSAAQDYALFTCTATNALGSDQTNIQLVSISRPDPPSGLKVVSLTPHSVGLEWKPGFDGGLPQRFCIRYEALGTPGFHYVDVVPPQATTFTLTGLQPSTRYRVWLLASNALGDSGLADKGTQLPITTPGLHQPSGEPEDQLPTEPPSGPSGLPLLPVLFALGGLLLLSNASCVGGVLWQRRLRRLAEGISEKTEAGSEEDRVRNEYEESQWTGERDTQSSTVSTTEAEPYYRSLRDFSPQLPPTQEEVSYSRGFTGEDEDMAFPGHLYDEVERTYPPSGAWGPLYDEVQMGPWDLHWPEDTYQDPRGIYDQVAGDLDTLEPDSLPFELRGHLV
notes: Nephrin, human NPHS1 cDNA cloned into a modified pcDNA6 vector behind the CD5 signal peptide and the V5 tag (sV5-tag); A CD5 signal peptide precedes the V5 tag in the construct; also called sV5-Nphs1; sV5-Nephrin; source: HEK 293T, transfected (calcium phosphate), in lysate; not shown: V5, N-terminal, kept
- mean normalized densitometry value (co-IP) (Neph3 (filtrin) 353V): 1 relative to wild type (1.0)
- mean densitometry value (co-IP) [2]: 1.18 relative to wild type (1.0)
